Experimental data reported in patent US20220252584, “METHODS AND DEVICES FOR […] A PATHOGEN AND ITS MOLECULAR COMPONENTS” (THE REGENTS OF THE UNIVERSITY OF CALIFORNIA, published 2022).

Legend:
SARS-CoV-2 spike RBD = SARS-CoV-2 spike RBD (SARS-CoV-2, UniProt P0DTC2 P0DTC2:319-541)
SARS-CoV spike RBD = SARS-CoV spike RBD (SARS-CoV, UniProt P59594 P59594:306-527)
[1] = target: SARS-CoV-2 nucleocapsid (N) protein (SARS-CoV-2, UniProt P0DTC9 P0DTC9:1-419)
SARS-CoV N protein = SARS-CoV N protein (SARS-CoV, UniProt P59595 P59595:1-422)

B1: Aptamer-S (Aptamer 1C) (ssDNA)
DNA: CAGCACCGACCTTGTGCTTTGGGAGTGCTGGTCCAAGGGCGTTAATGGACA
binding result (SARS-CoV-2 spike RBD): binds | binding result (SARS-CoV spike RBD): binds

B2: Aptamer-N (Aptamer Np-48) (ssDNA)
DNA: GCTGGATGTCGCTTACGACAATATTCCTTAGGGGCACCGCTACATTGACACATCCAGC
modifications: 3' amino linker, coupled to PBASE-graphene
binding result [1]: binds

B3: Aptamer-N (Aptamer Np-48) (ssDNA)
DNA: B2 DNA
binding result (SARS-CoV N protein): binds
